Test results taken from patent publication US20240270846A1 (published 2024).

These binders were tested against T1, CD3 epsilon homodimer protein (UniProt P07766 23-126) (assay: SPR Biacore T200, CD3e homodimer on chip, antibody analyte;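 note: CD3 epsilon homodimer amine-coupled on CM4 sensor chip, antibodies injected as analyte at 25 °C in HBS-EP+, ratio ≥0.8 taken as binding retained versus unaltered parent antibody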).
T1 construct: Construct of the homodimer is not described; also called CD3 (CD3 epsilon)
T1 sequence (P07766 23-126): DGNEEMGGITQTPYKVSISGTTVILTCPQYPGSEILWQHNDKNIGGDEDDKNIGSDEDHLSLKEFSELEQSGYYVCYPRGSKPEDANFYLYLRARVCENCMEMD

Binder | ratio of amounts bound (altered form/GLS3000)
GLS3000 T31I one-arm antibody (antibody, human IgG1, kappa, L234A L235A, N297A, name in Kabat numbering) light: DIVMTQSPLSLPVTPGEPASISCRSSQSLVHSNRNIYLHWYQQKPGQAPRLLIYKVSNRFSGVPDRFSGSGSGTDFTLKISRVEAEDVGVYYCGQGTQVPYTFGQGTKLEIKRTVAAPSVFIFPPSDEQLKSGTASVVCLLNNFYPREAKVQWKVDNALQSGNSQESVTEQDSKDSTYSLSSTLTLSKADYEKHKVYACEVTHQGLSSPVTKSFNRGEC heavy: QVQLVESGGGVVQPGRSLRLSCAASGFTFSNAWMHWVRQAPGKGLEWVAQIKAKSNNYATYYAESVKGRFTISRDDSKNSLYLQMNSLKTEDTAVYYCRYVHYGAYYGVDAWGQGTTVTVSSASTKGPSVFPLAPSSKSTSGGTAALGCLVKDYFPEPVTVSWNSGALTSGVHTFPAVLQSSGLYSLSSVVTVPSSSLGTQTYICNVNHKPSNTKVDKKVEPKSCDKTHTCPPCPAPEAAGGPSVFLFPPKPKDTLMISRTPEVTCVVVDVSHEDPEVKFNWYVDGVEVHNAKTKPREEQYASTYRVVSVLTVLHQDWLNGKEYKCKVSNKALPAPIEKTISKAKGQPREPQVYTLPPSRCELTKNQVSLSCAVKGFYPSDIAVEWESNGQPENNYKTTPPVLDSDGSFFLVSKLTVDKSRWQQGNVFSCSVMHEALHNHYTQKSLSLSPDYKDDDDK EPKSSDKTHTCPPCPAPELLGGPSVFLFPPKPKDTLMISRTPEVTCVVVDVSHEDPEVKFNWYVDGVEVHNAKTKPREEQYNSTYRVVSVLTVLHQDWLNGKEYKCKVSNKALPAPIEKTISKAKGQPREPQVCTLPPSRDELTKNQVSLWCLVKGFYPSDIAVEWESNGQPENNYKTTPPVLDSDGSFFLYSKLTVDKSRWQQGNVFSCSVMHEALHNRYTQKSLSLSP | 0.97
GLS3000 T31K one-arm antibody (antibody, human IgG1, kappa, L234A L235A, N297A, name in Kabat numbering) light: DIVMTQSPLSLPVTPGEPASISCRSSQSLVHSNRNKYLHWYQQKPGQAPRLLIYKVSNRFSGVPDRFSGSGSGTDFTLKISRVEAEDVGVYYCGQGTQVPYTFGQGTKLEIKRTVAAPSVFIFPPSDEQLKSGTASVVCLLNNFYPREAKVQWKVDNALQSGNSQESVTEQDSKDSTYSLSSTLTLSKADYEKHKVYACEVTHQGLSSPVTKSFNRGEC heavy: QVQLVESGGGVVQPGRSLRLSCAASGFTFSNAWMHWVRQAPGKGLEWVAQIKAKSNNYATYYAESVKGRFTISRDDSKNSLYLQMNSLKTEDTAVYYCRYVHYGAYYGVDAWGQGTTVTVSSASTKGPSVFPLAPSSKSTSGGTAALGCLVKDYFPEPVTVSWNSGALTSGVHTFPAVLQSSGLYSLSSVVTVPSSSLGTQTYICNVNHKPSNTKVDKKVEPKSCDKTHTCPPCPAPEAAGGPSVFLFPPKPKDTLMISRTPEVTCVVVDVSHEDPEVKFNWYVDGVEVHNAKTKPREEQYASTYRVVSVLTVLHQDWLNGKEYKCKVSNKALPAPIEKTISKAKGQPREPQVYTLPPSRCELTKNQVSLSCAVKGFYPSDIAVEWESNGQPENNYKTTPPVLDSDGSFFLVSKLTVDKSRWQQGNVFSCSVMHEALHNHYTQKSLSLSPDYKDDDDK EPKSSDKTHTCPPCPAPELLGGPSVFLFPPKPKDTLMISRTPEVTCVVVDVSHEDPEVKFNWYVDGVEVHNAKTKPREEQYNSTYRVVSVLTVLHQDWLNGKEYKCKVSNKALPAPIEKTISKAKGQPREPQVCTLPPSRDELTKNQVSLWCLVKGFYPSDIAVEWESNGQPENNYKTTPPVLDSDGSFFLYSKLTVDKSRWQQGNVFSCSVMHEALHNRYTQKSLSLSP | 1.04

Other lines, results leading:

ratio of amounts bound (altered form/GLS3000) | Binder
0.31 | GLS3000 T31P one-arm antibody (antibody, human IgG1, kappa, L234A L235A, N297A, name in Kabat numbering) light: DIVMTQSPLSLPVTPGEPASISCRSSQSLVHSNRNPYLHWYQQKPGQAPRLLIYKVSNRFSGVPDRFSGSGSGTDFTLKISRVEAEDVGVYYCGQGTQVPYTFGQGTKLEIKRTVAAPSVFIFPPSDEQLKSGTASVVCLLNNFYPREAKVQWKVDNALQSGNSQESVTEQDSKDSTYSLSSTLTLSKADYEKHKVYACEVTHQGLSSPVTKSFNRGEC heavy: QVQLVESGGGVVQPGRSLRLSCAASGFTFSNAWMHWVRQAPGKGLEWVAQIKAKSNNYATYYAESVKGRFTISRDDSKNSLYLQMNSLKTEDTAVYYCRYVHYGAYYGVDAWGQGTTVTVSSASTKGPSVFPLAPSSKSTSGGTAALGCLVKDYFPEPVTVSWNSGALTSGVHTFPAVLQSSGLYSLSSVVTVPSSSLGTQTYICNVNHKPSNTKVDKKVEPKSCDKTHTCPPCPAPEAAGGPSVFLFPPKPKDTLMISRTPEVTCVVVDVSHEDPEVKFNWYVDGVEVHNAKTKPREEQYASTYRVVSVLTVLHQDWLNGKEYKCKVSNKALPAPIEKTISKAKGQPREPQVYTLPPSRCELTKNQVSLSCAVKGFYPSDIAVEWESNGQPENNYKTTPPVLDSDGSFFLVSKLTVDKSRWQQGNVFSCSVMHEALHNHYTQKSLSLSPDYKDDDDK EPKSSDKTHTCPPCPAPELLGGPSVFLFPPKPKDTLMISRTPEVTCVVVDVSHEDPEVKFNWYVDGVEVHNAKTKPREEQYNSTYRVVSVLTVLHQDWLNGKEYKCKVSNKALPAPIEKTISKAKGQPREPQVCTLPPSRDELTKNQVSLWCLVKGFYPSDIAVEWESNGQPENNYKTTPPVLDSDGSFFLYSKLTVDKSRWQQGNVFSCSVMHEALHNRYTQKSLSLSP
0.32 | GLS3000 T31N one-arm antibody (antibody, human IgG1, kappa, L234A L235A, N297A, name in Kabat numbering) light: DIVMTQSPLSLPVTPGEPASISCRSSQSLVHSNRNNYLHWYQQKPGQAPRLLIYKVSNRFSGVPDRFSGSGSGTDFTLKISRVEAEDVGVYYCGQGTQVPYTFGQGTKLEIKRTVAAPSVFIFPPSDEQLKSGTASVVCLLNNFYPREAKVQWKVDNALQSGNSQESVTEQDSKDSTYSLSSTLTLSKADYEKHKVYACEVTHQGLSSPVTKSFNRGEC heavy: QVQLVESGGGVVQPGRSLRLSCAASGFTFSNAWMHWVRQAPGKGLEWVAQIKAKSNNYATYYAESVKGRFTISRDDSKNSLYLQMNSLKTEDTAVYYCRYVHYGAYYGVDAWGQGTTVTVSSASTKGPSVFPLAPSSKSTSGGTAALGCLVKDYFPEPVTVSWNSGALTSGVHTFPAVLQSSGLYSLSSVVTVPSSSLGTQTYICNVNHKPSNTKVDKKVEPKSCDKTHTCPPCPAPEAAGGPSVFLFPPKPKDTLMISRTPEVTCVVVDVSHEDPEVKFNWYVDGVEVHNAKTKPREEQYASTYRVVSVLTVLHQDWLNGKEYKCKVSNKALPAPIEKTISKAKGQPREPQVYTLPPSRCELTKNQVSLSCAVKGFYPSDIAVEWESNGQPENNYKTTPPVLDSDGSFFLVSKLTVDKSRWQQGNVFSCSVMHEALHNHYTQKSLSLSPDYKDDDDK EPKSSDKTHTCPPCPAPELLGGPSVFLFPPKPKDTLMISRTPEVTCVVVDVSHEDPEVKFNWYVDGVEVHNAKTKPREEQYNSTYRVVSVLTVLHQDWLNGKEYKCKVSNKALPAPIEKTISKAKGQPREPQVCTLPPSRDELTKNQVSLWCLVKGFYPSDIAVEWESNGQPENNYKTTPPVLDSDGSFFLYSKLTVDKSRWQQGNVFSCSVMHEALHNRYTQKSLSLSP
